Data as given in PMC10128069, “A Fijivirus Major Viroplasm Protein Shows RNA-Stimulated ATPase Activity by Adopting Pentameric and Hexameric Assemblies of Dimers” (mBio, 2023).

What was measured:
[1] = molecular target: P9-1 (Mal de Rio Cuarto virus (MRCV)) (UniProt D9U542); experiment: competition EMSA; conditions: 10 mM Tris-HCl, 50 mM KCl, 0.5 mM EDTA, 10% glycerol, 1 mM DTT, pH 7.5; 30 min at room temperature; 6.5% native PAGE at 4 C
[2] = molecular target: P9-1 (Mal de Rio Cuarto virus (MRCV), UniProt D9U542 1-337); experiment: EMSA; 5 uM probe; concentration-dependent, 1, 3, 6 uM protein; 10 mM Tris-HCl, 50 mM KCl, 0.5 mM EDTA, 10% glycerol, 1 mM DTT, pH 7.5; 30 min at room temperature; 6.5% native PAGE at 4 C; conditions: protein: recombinant; tags: N-terminal 52-residue tag (6xHis/Xpress/EK); label: 5'-HEX; single strand
[3] = molecular target: the molecule itself; experiment: SEC-MALS
[4] = molecular target: the molecule itself; experiment: SAXS
[5] = molecular target: the molecule itself; experiment: cryo-EM structure
[6] = molecular target: the molecule itself; experiment: crystal structure

poly(A), average 250 nt
binding signal (fold decrease of ssDNA complex) [1]: 10

GACCTCGCTCTCTGTTTCTCAT (ssDNA) [22-nt HEX-ssDNA probe]
binding result [2]: binds

B1: P9-1 major viroplasm protein of mal de Río Cuarto virus (MRCV), full-length, expressed in E. coli from pRSET (natural protein)
chain: MADLERRTFGSYKIEEITIKNDQQQKTTNQQQISNNEQRISTKKIPILDDGIFDLINYLLNGTHFDKTHYCGFDYSHLPTLERDFNTASNYVSENYSIIVEEIDLNKYERSESISLKSPDFTVVLEYFKKHVEGQTEQEENKTESTSSELPAKIVRELPLLPIMCRESEDSISEDILEGEGAVIQVLKMFMKGFLVHLGENPNSYDRQLTIEKYRPLLISIIGYEFTVGTRATHTKINHIYYQLATFDNYPFDLLRFQLQSLIDTPNVIKERIEKDGLFKVITTTNARGQYQSVLLRGINGSESYLNLKRYRKFKVRVVGNVDNVIKNDFSSLKLDV
notes: source: E. coli BL21, purified (IMAC on Ni-NTA, SEC on Superdex 200); copies: 10 or 12
stoichiometry N [3]: ~10.4 protomers | stoichiometry N [4]: 10 | stoichiometry N [5]: 12

B2: P9-1ΔC-arm (residues 1 to 313 of MRCV P9-1, lacking the 24 C-terminal residues) (domain or fragment)
chain: MADLERRTFGSYKIEEITIKNDQQQKTTNQQQISNNEQRISTKKIPILDDGIFDLINYLLNGTHFDKTHYCGFDYSHLPTLERDFNTASNYVSENYSIIVEEIDLNKYERSESISLKSPDFTVVLEYFKKHVEGQTEQEENKTESTSSELPAKIVRELPLLPIMCRESEDSISEDILEGEGAVIQVLKMFMKGFLVHLGENPNSYDRQLTIEKYRPLLISIIGYEFTVGTRATHTKINHIYYQLATFDNYPFDLLRFQLQSLIDTPNVIKERIEKDGLFKVITTTNARGQYQSVLLRGINGSESYLNLKRYRK
notes: source: E. coli BL21, purified (IMAC on Ni-NTA, SEC on Superdex 200); not shown: His6, N-terminal, kept
stoichiometry N [6]: 2 | stoichiometry N [3]: ~2.3 protomers
